# In the DeepSol protein solubility set:
# Experiment: soluble on expression in E. coli; label from the status in PepcDB or PDB records
row,Sequence,soluble on expression in E. coli
1,MGSITENTSWNKEFSAEAVNGVFVLCKSSSKSCATNDLARASKEYLPASTFKIPNAIIGLETGVIKNEHQVFKWDGKPRAMKQWERDLTLRGAIQVSAVPVFQQIAREVGEVRMQKYLKKFSYGNQNISGGIDKFALEGQLRISAVNQVEFLESLYLNKLSASKENQLIVKEALVTEAAPEYLVHSKTGFSGVGTESNPGVAWWVGWVEKETEVYFFAFNMDIDNESKLPLRKSIPTKIMESEGIIGG,soluble
2,MGSNPPASPLQDNLVIALHSYEPSHDGDLGFEKGEQLRILEQSGEWWKAQSLTTGQEGFIPFNFVAKANSLEPEPWFFKNLSRKDAERQLLAPGNTHGSFLIRESESTAGSFSLSVRDFDQNQGEVVKHYKIRNLDNGGFYISPRITFPGLHELVRHYTNASDGLCTRLSRPCQT,soluble
3,MGSQFLLSVREFMQTRYYAKKTIEAYLHWITRYIHFHNKKHPSLMGDKEVEEFLTYLAVQGKVATKTQSLALNSLSFLYKEILKTPLSLEIRFQRSQLERKLPVVLTRDEIRRLLEIVDPKHQLPIKLLYGSGLRLMECMRLRVQDIDFDYGAIRIWQGKGGKNRTVTLAKELYPHLKEQIALAKRYYDRDLHQKNYGGVWLPTALKEKYPNAPYEFRWHYLFPSFQLSLDPESDVMRRHHMNETVLQKAVRRSAQEAGIEKTVTCHTLRHSFATHLLEVGADIRTVQEQLGHTDVKTTQIYTHVLDRGASGVLSPLSRL,soluble
4,MGSSHHHHHHGKTIFVIVPTNEEQVAFLEALAKQDELNFDWQNPPTEPGQPVVILIPSDMVEWFLEMLKAKGIPFTVYVEEGGSENLYFQGGGGGGMPPPLPHRRATRACALVAAVALVLVLPTSRARTVGMRSMSAYTEAQQLHTRKFLDGFVQSMPDLHNIWTGDDFCAWKGVTCLRDGVSVSATNWVQLAVPPGRLPEVSSADVDVSQVFVTSISVRANGRNLSGTLPASWGLLQNLRKVRLESNSLTGSLPPEWSGLRSLRELYLSNNNLTGTLPASWGESMKSLAILSLDRNALAGTLPPEWGRMKSMQALVLESNQLSGTLPAEWRFMRAASTLMIGRNYLSGTLPHEWAEMSVMEWMDLHSNRLTGWLPAAWATMTLLNTLLLFDNGFTGTLPTEWARLEFLEELRMQDNVLVGTLPASWSAMVLMQVLDISENTLSGTLPVLWSSMQSLDTLSIRDNQLSGSLPIEWRTLPKIMHLHLEGNALCGCLPLNWTSRYVAVEVDEAVTSVNCATENACNDVNLDSISDKISSSCSSSTSPNGGRRR,not soluble
5,MGSSHHHHHHGKTIFVIVPTNEEQVAFLEALAKQDELNFDWQNPPTEPGQPVVILIPSDMVEWFLEMLKAKGIPFTVYVEEGGSENLYFQGGGGGGRRLFLLLAWQPSFAKHLSELEPVPQRAPVEKRRRQHIPLSLQAREELSRKSNELQYHVVTQDWFGQRVDDFVTQHHPEWDYETVKRLVQQGHIYRYRKNGKKRYTRLTDRLEFDELVVVPTASFWERQLAPPSGVELQSSSTSQQQERRQKFHLSAKTREMAQEMVLFKNEHVIVINKPSGVPIMPTHDPLAMNITDLLPAWRYTNTQTPVICHNLDTETSGCVVLARSANTHRMLGRMFVKRVVPNSVYWGFAVGKPPVNFGRIRMHFEVQKGQGGDVIVARPTPTADSKVGIAEFVVNASALEFGSFISFYPLTTRRHQERIMAAHALRAPLLGDAKYGGESAFPHSLSLFWDPARKDVPLHLHHRKIQLPYKNGAGEFVCVTAPLPPHMEKTFKRLGWPVDADDPLIPG,not soluble
6,MGSSHHHHHHSQDMDKNELVQKAKLAEQAERYDDMAACMKSVTEQGAELSNEERNLLSVAYKNVVGARRSSWRVVSSIEQKTEGAEKKQQMAREYREKIETELRDICNDVLSLLEKFLIPNASQAESKVFYLKMKGDYYRYLAEVAAGDDKKGIVDQSQQAYQEAFEISKKEMQPTHPIRLGLALNFSVFYYEILNSPEKACSLAKTAFDEAIAELDTLSEESYKDSTLIMQLLRDNLTLWTSDTQGDEAEAGEGGEN,soluble
7,MGSSHHHHHHSQDPNSLEVLFQGPMAGGRDRGDLAARQLVFLLPEHLKDASKKKKKSSLLFVKLANPHSGEGATYLIDMCLQQLFEIKVFKEKHHSWFINQSVQSGGLLHFATPMDPLFLLLHYLLKAGKEGKYQPLDQVVVDDTFPDCTLLLRFPELEKSLRHVTEEKEVNSKKYYKYSSEKTLKWLEKKVNQTVVALKANNVNVGARVQSSAYFSGGQVSRDKEEDYVRYAHGLISDYIPKELSDDLSKFLKLPEPPASLPNPPSKKLKLSDEPVEAKEDYTKFNTKDLKTGKKNSKMTAAQKALAKVDKSGMKSIDAFFGAKNKKTGKI,soluble
8,MGSSHHHHHHSSGENLYFQGHMNVLVIGRGGREHAIAWKAAQSPLVGKLYVAPGNPGIADVAELVHIDELDIEALVQFAKQQAIDLTIVGPEAPLASGIVDRFMAEGLRIFGPSQRAALIEGSKAFAKELMKKYGIPTADHAAFTSYEEAKAYIEQKGAPIVIKADGLAAGKGVTVAQTVEEALAAAKAALVDGQFGTAGSQVVIEEYLEGEEFSFMAFVNGEKVYPLAIAQDHKRAYDGDEGPNTGGMGAYSPVPQISDEMMDAALEAILRPAAKALAAEGRPFLGVLYAGLMATANGPKVIEFNARFGDPEAQVVLPRLKTDLVEAVLAVMDGKELELEWTDEAVLGVVLAAKGYPGAYERGAEIRGLDRISPDALLFHAGTKREGGAWYTNGGRVLLLAAKGETLAKAKEKAYEQLAAIDCDGLFYRRDIGRRAIERASAAYTRMKGR,soluble
9,MGSSHHHHHHSSGLVIRGSHMRIALMQHTARPLDPQHNLDLIDDAAARASEQGAQLLLTPELFGFGYVPSQICAQVSAEQVDAARSRLRGIARDRGIALVWSLPGPEGPEQRGITAELADEHGEVLASYQKVQLYGPEEKAAFVPGEQPPPVLSWGGRQLSLLVCYDVEFPEMVRAAAARGAQLVLVPTALAGDETSVPGILLPARAVENGITLAYANHCGPEGGLVFDGGSVVVGPAGQPLGELGVEPGLLVVDLPDQSQDAGSDSADYLQDRRAELHRNWL,soluble
10,MGSSHHHHHHSSGLVPRGSHGLVPRGSHMKKLKLHGFNNLTKSLSFCIYDICYAKTAEERDGYIAYIDELYNANRLTEILSETCSIIGANILNIARQDYEPQGASVTILVSEEPVDPKLIDKTEHPGPLPETVVAHLDKSHICVHTYPESHPEGGLCTFRADIEVSTCGVISPLKALNYLIHQLESDIVTIDYRVRGFTRDINGMKHFIDHEINSIQNFMSDDMKALYDMVDVNVYQENIFHTKMLLKEFDLKHYMFHTKPEDLTDSERQEITAALWKEMREIYYGRNMPAV,soluble
11,MGSSHHHHHHSSGLVPRGSHMAAMMSLNDFLSSVLPVSEQFEYLSLQSIPLETHAVVTPNKDDKRVPKSTIKTQHFFSLFHQGKVFFSLEVYVYVTLWDEADAERLIFVSKADTNGYCNTRVSVRDITKIILEFILSIDPNYYLQKVKPAIRSYKKISPELISAASTPARTLRILARRLKQSGSTVLKEIESPRFQQDLYLSFTCPREILTKICLFTRPASQYLFPDSSKNSKKHILNGEELMKWWGFILDRLLIECFQNDTQAKLRIPGEDPARVRSYLRGMKYPLWQVGDIFTSKENSLAVYNIPLFPDDPKARFIHQLAEEDRLLKVSLSSFWIELQERQEFKLSVTSSVMGISGYSLATPSLFPSSADVIVPKSRKQFRAIKKYITGEEYDTEEGAIEAFTNIRDFLLLRMATNLQSLTGKREHRERNQPVPASNINTLAITMLKPRKKAKALPKT,soluble
12,MGSSHHHHHHSSGLVPRGSHMASASAAGGQQSFDLLVIGGGSGGLACAKEAAQLGKKVAVADYVEPSPRGTKWGLGGTCVNVGCIPKKLMHQAALLGGMIRDAHHYGWEVAQPVQHNWKTMAEAVQNHVKSLNWGHRVQLQDRKVKYFNIKASFVDEHTVRGVDKGGKATLLSAEHIVIATGGRPRYPTQVKGALEYGITSDDIFWLKESPGKTLVVGASYVALECAGFLTGIGLDTTVMMRSIPLRGFDQQMSSLVTEHMESHGTQFLKGCVPSHIKKLPTNQLQVTWEDHASGKEDTGTFDTVLWAIGRVPETRTLNLEKAGISTNPKNQKIIVDAQEATSVPHIYAIGDVAEGRPELTPTAIKAGKLLAQRLFGKSSTLMDYSNVPTTVFTPLEYGCVGLSEEEAVALHGQEHVEVYHAYYKPLEFTVADRDASQCYIKMVCMREPPQLVLGLHFLGPNAGEVTQGFALGIKCGASYAQVMQTVGIHPTCSEEVVKLHISKRSGLEPTVTGCCG,soluble
